Data published in US20250297255A1 (ARSENAL BIOSCIENCES, published 2025).

B1: TMPRSS4 Ab75 scFv (VH-VL) (scFv)
scFv: EVQLLESGGGLVQPGGSLRLSCAASGFTFSSYAMSWVRQAPGKGLEWVSSISSASSYKYYADSVKGRFTISRDNSKNTLYLQMNSLRAEDTAVYYCARDIYSSGWRGYYYYGMDVWGQGTTVTVSSGGGGSGGGGSGGGGSDIQMTQSPSSLSASVGDRVTITCRASQGIRNDLNWYQQKPGKAPKLLIYAATRLQSGVPSRFSGSGSGTDFTLTISSLQPEDFATYYCQQAHSFPYSFGQGTRLEIK
notes: on monoclonal phage in the screen
B2: TMPRSS4 Ab77 scFv (VH-VL) (scFv)
scFv: QVQLVQSGAEVKKPGASVKVSCKASGNIFTAQYMHWVRQAPGQGLEWMGWMNPNTVYTGSAQKFQGRVTMTRDTSTSTVYMELSSLRSEDTAVYYCARDWVGDGYNSFDYWGQGTLVTVSSGGGGSGGGGSGGGGSDIVMTQSPDSLAVSLGERATINCKSSQSVLYSSNNKNYLAWYQQKPGQPPKLLIYWASTRESGVPDRFSGSGSGTDFTLTISSLQAEDVAVYYCQQYYTTPFTFGPGTKVDIK
notes: as for B1
B3: TMPRSS4 Ab71 scFv (VH-VL) (scFv)
scFv: EVQLLESGGGLVQPGGSLRLSCAASGFMFDYYAMHWVRQAPGKGLEWVSLISYDGRNKYYADSVKGRFTISRDNSKNTLYLQMNSLRAEDTAVYYCARPGSYSRFQHWGQGTLVTVSSGGGGSGGGGSGGGGSDIQMTQSPSSLSASVGDRVTITCRASQGISNNLNWYQQKPGKAPKLLIYAASSLQSGVPSRFSGSGSGTDFTLTISSLQPEDFATYYCQQANNFPITFGQGTKVEIK
notes: as for B1
B4: TMPRSS4 Ab64 scFv (VH-VL) (scFv)
scFv: QVQLVQSGAEVKKPGASVKVSCKASGYTFTGYYMHWVRQAPGQGLEWMGMINPSGGGTTYAQKFQGRVTMTRDTSTSTVYMELSSLRSEDTAVYYCARDRRSMITFRTDYWGQGTLVTVSSGGGGSGGGGSGGGGSDIVMTQSPDSLAVSLGERATINCKSSQSVLYSSNNKNYLAWYQQKPGQPPKLLIYWASTRESGVPDRFSGSGSGTDFTLTISSLQAEDVAVYYCQQYYSTPYTFGQGTKLEIK
notes: as for B1
B5: TMPRSS4 Ab63 scFv (VH-VL) (scFv)
scFv: QVQLVQSGAEVKKPGASVKVSCKASGYTFTGYRMHWVRQAPGQGLEWMGVINPNTGTARFAQKFQGRVTMTRDTSTSTVYMELSSLRSEDTAVYYCASVGVYWYFDLWGRGTLVTVSSGGGGSGGGGSGGGGSDIVMTQSPDSLAVSLGERATINCKSSQSVLYSSNNKNYLAWYQQKPGQPPKLLIYWASTRESGVPDRFSGSGSGTDFTLTISSLQAEDVAVYYCQQYYSAPLTFGGGTKVEIK
notes: as for B1
B6: TMPRSS4 Ab62 scFv (VH-VL) (scFv)
scFv: QVQLVQSGAEVKKPGASVKVSCKASGYTFTDYYIHWVRQAPGQGLEWMGWISTYNGNTNYAQKLQGRVTMTRDTSTSTVYMELSSLRSEDTAVYYCARGMVRGMDVWGQGTMVTVSSGGGGSGGGGSGGGGSDIVMTQSPDSLAVSLGERATINCKSSQSVLYSSNNKNYLAWYQQKPGQPPKLLIYWASTRESGVPDRFSGSGSGTDFTLTISSLQAEDVAVYYCQQYYTTPWTFGQGTRLEIK
notes: as for B1
B7: TMPRSS4 Ab8 scFv (VH-VL) (scFv)
scFv: QVQLVQSGAEVKKPGASVKVSCKASGYRFTSQYMHWVRQAPGQGLEWMGIINPSGGSTSYAQKFQGRVTMTRDTSTSTVYMELSSLRSEDTAVYYCARGRIAVAGHPLGYWGQGTLVTVSSGGGGSGGGGSGGGGSDIQMTQSPSSLSASVGDRVTITCRASQSISSWLAWYQQKPGKAPKLLIYGASSLQSGVPSRFSGSGSGTDFTLTISSLQPEDFATYYCQQANSFPPTFGGGTKVEIK
notes: as for B1
B8: TMPRSS4 Ab9 scFv (VH-VL) (scFv)
scFv: QVQLVQSGAEVKKPGASVKVSCKASGYTFTRYYMHWVRQAPGQGLEWMGWINPNSGGTNYAQKFQGRVTMTRDTSTSTVYMELSSLRSEDTAVYYCARGGSWGSGPLGYWGQGTLVTVSSGGGGSGGGGSGGGGSDIQMTQSPSSLSASVGDRVTITCQASQDISRFLHWYQQKPGKAPKLLIYGASNLKSGVPSRFSGSGSGTDFTLTISSLQPEDFATYYCQQSYSTPPTFGGGTKVEIK
notes: as for B1
B9: TMPRSS4 Ab72 scFv (VH-VL) (scFv)
scFv: EVQLLESGGGLVQPGGSLRLSCAASGFTFGAYVMHWVRQAPGKGLEWVSSISGGSTYYADSVKGRFTISRDNSKNTLYLQMNSLRAEDTAVYYCARHPVRGVIGAGWFDPWGQGTLVTVSSGGGGSGGGGSGGGGSDIQMTQSPSSLSASVGDRVTITCRASQNISRWLAWYQQKPGKAPKLLIYAASSLQSGVPSRFSGSGSGTDFTLTISSLQPEDFATYYCQQAISFPLTFGGGTKVEIK
notes: as for B1
B10: TMPRSS4 Ab70 scFv (VH-VL) (scFv)
scFv: EVQLLESGGGLVQPGGSLRLSCAASGFAFSGTWMQWVRQAPGKGLEWVSDISGSSRDTNYADSVKGRFTISRDNSKNTLYLQMNSLRAEDTAVYYCAKDHWDSYGYLDYWGQGTLVTVSSGGGGSGGGGSGGGGSDIQMTQSPSSLSASVGDRVTITCRASQSISGWLAWYQQKPGKAPKLLIYAASTLRDGVPSRFSGSGSGTDFTLTISSLQPEDFATYYCQQANSFPLTFGQGTKVEIK
notes: as for B1
B11: TMPRSS4 Ab76 scFv (VH-VL) (scFv)
scFv: EVQLLESGGGLVQPGGSLRLSCAASGFTFSSYAMSWVRQAPGKGLEWVSAISGSGGNAYYADSVKGRFTISRDNAKNSLYLQMNSLRAEDTAVYYCAKNSWGSYRPRAFDIWGQGTMVTVSSGGGGSGGGGSGGGGSDIVMTQSPDSLAVSLGERATINCKSSQSVLYSSNNKNYLAWYQQKPGQPPKLLIYWASTRASGVPDRFSGSGSGTDFTLTISSLQAEDVAVYYCQQYLSLPYTFGQGTKVEIK
notes: as for B1
B12: TMPRSS4 Ab61 scFv (VH-VL) (scFv)
scFv: QVQLVQSGAEVKKPGASVKVSCKASGYTFTNYYMHWVRQAPGQGLEWMGWMNPNSGNTGYAQNLQGRVTMTRDTSTSTVYMELSSLRSEDTAVYYCARGRTWFRSGMDVWGQGTTVTVSSGGGGSGGGGSGGGGSEIVMTQSPATLSVSPGERATLSCRASQSVSSYLAWYQQKPGQAPRLLIYGASTRATGIPARFSGSGSGTEFTLTISSLQSEDFAVYYCQQYDISVTFGPGTKVDIK
notes: as for B1
B13: TMPRSS4 Ab78 scFv (VH-VL) (scFv)
scFv: EVQLLESGGGLVQPGGSLRLSCAASGFTFSSYGMNWVRQAPGKGLEWVSAISGSGGRTYYADSVKGRFTISRDNAKNSLYLQMNSLRAEDTAVYYCAKGTYYSSPKYSFDYWGQGTLVTVSSGGGGSGGGGSGGGGSDIQMTQSPSSLSASVGDRVTITCRASQDIKNFLAWYQQKPGKAPKLLIYAASSLQSGVPSRFSGSGSGTDFTLTISSLQPEDFATYYCQQSYSTPWTFGQGTKLEIK
notes: as for B1
B14: TMPRSS4 Ab69 scFv (VH-VL) (scFv)
scFv: EVQLLESGGGLVQHGGSLRLSCAASGFAFSSYVLHWVRQAPGKGLEWVSSISSSSSYIYYADSVKGRFTISRDNSKNTLYLQMNSLRAEDTAVYYCARGDRYPGLPNYWGQGTLVTVSSGGGGSGGGGSGGGGSDIQMTQSPSSLSASVGDRVTITCRASQGISSWLAWYQQKPGKAPKLLIYQASNKDTGVPSRFSGSGSGTDFTLTISSLQPEDFATYYCQQSYRIPWTFGQGTKVEIK
notes: as for B1
B15: TMPRSS4 Ab66 scFv (VH-VL) (scFv)
scFv: QVQLVQSGAEVKKPGSSVKVSCKASGGTFSSYAISWVRQAPGQGLEWVGGIMPIFGTANYAQKFQGRVTITADESPSTAYMELSSLRSEDTAVYYCATGRRELLNWGQGTLVTVSSGGGGSGGGGSGGGGSEIVMTQSPATLSVSPGERATLSCRASQSVNSRFLAWYQQKPGQAPRLLIYGASTRATGIPARFSGSGSGTEFTLTISSLQSEDFAVYYCMQGTHWPYTFGQGTKVEIK
notes: as for B1
B16: TMPRSS4 Ab60 scFv (VH-VL) (scFv)
scFv: QVQLVQSGAEVKKPGASVKVSCKASGYSFTTYYIHWVRQAPGQGLEWMGIINPSGGSTSYAQKFQGRVTMTRDTSTSTVYMELSSLRSEDTAVYYCARGGYYGSGYNSVGYWGPGTLVTVSSGGGGSGGGGSGGGGSEIVMTQSPATLSVSPGERATLSCRASQSVSSNTLAWYQQKPGQAPRLLIYGASTRATGIPARFSGSGSGTEFTLTISSLQSEDFAVYYCQQYGSSPLTFGPGTKVDIK
notes: as for B1
B17: TMPRSS4 Ab7 scFv (VH-VL) (scFv)
scFv: QVQLVQSGAEVKKPGASVKVSCKASGYTFSRYFMHWVRQAPGQGLEWVGWINPNSGNTGYAQKFQGRVTMTRDTSTSTVYMELSSLRSEDTAVYYCARVVTGGRLDVWGQGTTVTVSSGGGGSGGGGSGGGGSEIVMTQSPATLSVSPGERATLSCRASQRVSNNYLAWYQQKPGQAPRLLIYGASTRASGIPARFSGSGSGTEFTLTISSLQSEDFAVYYCQQYGSTPYTFGQGTKVEIK
notes: as for B1
B18: TMPRSS4 Ab65 scFv (VH-VL) (scFv)
scFv: QVQLVQSGAEVKKPGASVKVSCKASGYTFTGYYMHWVRQAPGQGLEWMGWMNPNSGNTGYAQKFQGRVTMTRDTSTSTVYMELSSLRSEDTAVYYCAGRKWLGLDFYNWFDPWGQGTLVTVSSGGGGSGGGGSGGGGSDIVMTQSPDSLAVSLGERATINCKSSQSVLYSSNNKNYLAWYQQKPGQPPKLLIYWASTRQSGVPDRFSGSGSGTDFTLTISSLQAEDVAVYYCQQYYSTPWTFGQGTKVEIK
notes: as for B1
B19: TMPRSS4 Ab67 scFv (VH-VL) (scFv)
scFv: QVQLVQSGAEVKKPGSSVKVSCKASGYTFTSYDINWVRQAPGQGLEWMGGIIPIFGTANYAQKFQGRVTITADESTSTAYMELSSLRSEDTAVYYCATTPGDAFDIWGQGTMVTVSSGGGGSGGGGSGGGGSDIVMTQSPDSLAVSLGERATINCKSSQSVLYSSNNKNYLAWYQQKPGQPPKLLIYWASTRESGVPDRFSGSGSGTDFTLTISSLQAEDVAVYYCQQYSDTPLTFGQGTKVEIK
notes: as for B1
B20: TMPRSS4 Ab74 scFv (VH-VL) (scFv)
scFv: EVQLLESGGGLVQPGGSLRLSCAASGFTFSSYAMHWVRQAPGKGLEWVSSISSSSTYIHYADSVKGRFTISRDNSKNTLYLQMNSLRAEDTAVYYCARVGRYYGSGSSLVDYWGQGTLVTVSSGGGGSGGGGSGGGGSDIQMTQSPSSLSASVGDRVTITCRASQSVSSWLAWYQQKPGKAPKLLIYDASSLQSGVPSRFSGSGSGTDFTLTISSLQPEDFATYYCQQAKSFPPTFGQGTKVEIK
notes: as for B1

Target: T1, Human TMPRSS4 (Transmembrane protease, serine 4), wild type full length (human, UniProt Q9NRS4 1-437)
T1 construct: Type II membrane protein over-expressed on HEK293T cells (also endogenous on H1975 and LUDLU-1 cells); also called TMPRSS4 WT; HEK293T-TMPRSS4
T1 sequence (Q9NRS4 whole entry): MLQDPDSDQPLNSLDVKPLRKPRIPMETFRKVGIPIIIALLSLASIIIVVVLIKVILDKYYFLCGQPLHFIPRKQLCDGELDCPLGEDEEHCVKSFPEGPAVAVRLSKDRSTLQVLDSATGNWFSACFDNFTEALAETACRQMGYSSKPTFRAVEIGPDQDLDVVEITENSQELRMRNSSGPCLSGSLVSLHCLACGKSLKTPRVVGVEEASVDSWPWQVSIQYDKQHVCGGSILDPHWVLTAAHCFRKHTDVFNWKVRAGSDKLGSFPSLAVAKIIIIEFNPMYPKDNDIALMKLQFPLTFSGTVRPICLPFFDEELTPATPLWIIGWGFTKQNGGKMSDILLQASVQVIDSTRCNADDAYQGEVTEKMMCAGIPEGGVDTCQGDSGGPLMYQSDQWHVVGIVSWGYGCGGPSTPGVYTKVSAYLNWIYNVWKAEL
Assay: flow cytometry, monoclonal phage on HEK293T-TMPRSS4 cells;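 further: bound phage detected with a PE-labelled mouse anti-M13 monoclonal antibody, read by flow cytometry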
Procedure: Monoclonal phages were prepared, screened for binding to HEK293T-TMPRSS4 cells by flow cytometry. Monoclonal phage clones were incubated with HEK293T-TMPRSS4 cells, the cells were washed and then incubated with a PE conjugated mouse anti-M13 mAb, and washed again before being analyzed by flow cytometry. The positive candidates were selected based on cytometry results, then followed by next-gen sequencing of the positive hits.

Binder	binding result
B1	binds
B2	binds
B3	binds
B4	binds
B5	binds
B6	binds
B7	binds
B8	binds
B9	binds
B10	binds
B11	binds
B12	binds
B13	binds
B14	binds
B15	binds
B16	binds
B17	binds
B18	binds
B19	binds
B20	binds
